Source: patent EP4803537A1 (PHRONTLINE BIOPHARMA (SUZHOU) CO., LTD, dated 2026)

B1: Fab-Fc/Fab-Fc bispecific antibody (zalutumumab Fab x pertuzumab Fab), KIH combination (K0/H0) (bispecific antibody, human IgG1, kappa)
heavy 1: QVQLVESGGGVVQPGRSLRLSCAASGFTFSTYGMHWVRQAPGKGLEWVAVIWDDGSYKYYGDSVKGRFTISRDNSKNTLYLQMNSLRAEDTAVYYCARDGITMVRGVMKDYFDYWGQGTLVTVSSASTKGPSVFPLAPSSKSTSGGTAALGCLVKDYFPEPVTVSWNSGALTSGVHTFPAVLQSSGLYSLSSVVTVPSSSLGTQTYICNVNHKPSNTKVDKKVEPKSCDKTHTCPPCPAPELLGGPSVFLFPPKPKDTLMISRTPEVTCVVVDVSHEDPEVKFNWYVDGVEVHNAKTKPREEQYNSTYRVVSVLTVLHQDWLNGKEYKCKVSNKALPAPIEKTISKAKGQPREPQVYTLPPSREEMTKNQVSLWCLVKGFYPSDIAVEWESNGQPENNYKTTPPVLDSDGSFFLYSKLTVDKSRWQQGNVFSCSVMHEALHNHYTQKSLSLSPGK
light 1: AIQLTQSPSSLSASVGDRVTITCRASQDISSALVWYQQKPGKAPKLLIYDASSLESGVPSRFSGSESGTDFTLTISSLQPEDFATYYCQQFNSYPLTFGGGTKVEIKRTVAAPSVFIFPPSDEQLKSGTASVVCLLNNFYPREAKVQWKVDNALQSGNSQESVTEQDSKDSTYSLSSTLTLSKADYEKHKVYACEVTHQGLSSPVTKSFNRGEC
heavy 2: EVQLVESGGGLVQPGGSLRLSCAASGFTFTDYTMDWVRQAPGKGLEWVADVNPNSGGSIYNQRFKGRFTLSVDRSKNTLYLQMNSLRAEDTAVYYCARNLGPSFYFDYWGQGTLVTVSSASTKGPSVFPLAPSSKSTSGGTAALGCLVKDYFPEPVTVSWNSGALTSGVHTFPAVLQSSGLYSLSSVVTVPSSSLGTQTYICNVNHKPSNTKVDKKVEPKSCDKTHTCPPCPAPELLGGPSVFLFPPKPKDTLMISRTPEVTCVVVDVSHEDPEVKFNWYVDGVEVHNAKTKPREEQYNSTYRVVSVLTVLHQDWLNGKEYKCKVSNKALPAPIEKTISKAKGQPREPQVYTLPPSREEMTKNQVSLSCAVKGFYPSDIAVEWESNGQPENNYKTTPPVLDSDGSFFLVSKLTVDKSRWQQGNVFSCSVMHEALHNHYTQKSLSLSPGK
light 2: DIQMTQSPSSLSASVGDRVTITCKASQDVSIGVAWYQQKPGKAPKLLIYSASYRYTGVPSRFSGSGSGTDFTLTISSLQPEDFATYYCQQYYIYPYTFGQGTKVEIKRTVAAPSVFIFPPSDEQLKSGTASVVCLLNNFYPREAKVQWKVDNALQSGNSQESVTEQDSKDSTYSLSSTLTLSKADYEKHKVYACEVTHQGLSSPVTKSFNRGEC
notes: Human IgG1 Fc (hinge, CH2, CH3); the exact junction between VH-CH1 and Fc (EU 221-447) is not spelled out; also called KIH control
B2: Fab-Fc/Fab-Fc bispecific antibody (zalutumumab Fab x pertuzumab Fab), M3 mutant combination (K2/H7) (bispecific antibody, human IgG1, kappa)
heavy 1: not shown
light 1: not shown
heavy 2: EVQLVESGGGLVQPGGSLRLSCAASGFTFTDYTMDWVRQAPGKGLEWVADVNPNSGGSIYNQRFKGRFTLSVDRSKNTLYLQMNSLRAEDTAVYYCARNLGPSFYFDYWGQGTLVTVSSASTKGPSVFPLAPSSKSTSGGTAALGCLVKDYFPEPVTVSWNSGALTSGVHTFPAVLQSSGLYSLSSVVTVPSSSLGTQTYICNVNHKPSNTKVDKKVEPKSCDKTHTCPPCPAPELLGGPSVFLFPPKPKDTLMISRTPEVTCVVVDVSHEDPEVKFNWYVDGVEVHNAKTKPREEQYNSTYRVVSVLTVLHQDWLNGKEYKCKVSNKALPAPIEKTISKAKGQPREPQVYTYPPSREEMTKNQVSLSCAVKGFYPSDIAVEWESNGQPENNYKTTPPVLRSDGSFFLVSKLTVDKSRWQQGNVFSCSVMHEALHNHYTQKSLSLSPGK
light 2: not shown
notes: Human IgG1 Fc; Junction between VH-CH1 and Fc not spelled out; no linker named for this format
B3: Fab-Fc/Fab-Fc bispecific antibody (zalutumumab Fab x pertuzumab Fab), M1 mutant combination (K2/H2) (bispecific antibody, human IgG1, kappa)
heavy 1: not shown
light 1: not shown
heavy 2: EVQLVESGGGLVQPGGSLRLSCAASGFTFTDYTMDWVRQAPGKGLEWVADVNPNSGGSIYNQRFKGRFTLSVDRSKNTLYLQMNSLRAEDTAVYYCARNLGPSFYFDYWGQGTLVTVSSASTKGPSVFPLAPSSKSTSGGTAALGCLVKDYFPEPVTVSWNSGALTSGVHTFPAVLQSSGLYSLSSVVTVPSSSLGTQTYICNVNHKPSNTKVDKKVEPKSCDKTHTCPPCPAPELLGGPSVFLFPPKPKDTLMISRTPEVTCVVVDVSHEDPEVKFNWYVDGVEVHNAKTKPREEQYNSTYRVVSVLTVLHQDWLNGKEYKCKVSNKALPAPIEKTISKAKGQPREPQVYTLPPSREEMTKNQVSLSCAVKGFYPSDIAVEWESNGQPENNYKTTPPVLRSDGSFFLVSKLTVDKSRWQQGNVFSCSVMHEALHNHYTQKSLSLSPGK
light 2: not shown
notes: as for B2
B4: Fab-Fc/Fab-Fc bispecific antibody (zalutumumab Fab x pertuzumab Fab), M2 mutant combination (K0/H8) (bispecific antibody, human IgG1, kappa)
heavy 1: not shown
light 1: not shown
heavy 2: EVQLVESGGGLVQPGGSLRLSCAASGFTFTDYTMDWVRQAPGKGLEWVADVNPNSGGSIYNQRFKGRFTLSVDRSKNTLYLQMNSLRAEDTAVYYCARNLGPSFYFDYWGQGTLVTVSSASTKGPSVFPLAPSSKSTSGGTAALGCLVKDYFPEPVTVSWNSGALTSGVHTFPAVLQSSGLYSLSSVVTVPSSSLGTQTYICNVNHKPSNTKVDKKVEPKSCDKTHTCPPCPAPELLGGPSVFLFPPKPKDTLMISRTPEVTCVVVDVSHEDPEVKFNWYVDGVEVHNAKTKPREEQYNSTYRVVSVLTVLHQDWLNGKEYKCKVSNKALPAPIEKTISKAKGQPREPQVYTYPPSREEMTKNQVSLSCAVKGFYPSDIAVEWESNGQPENNYKTTPPVLDSDGSFFLVSKLTVDKSRWQQGNVFSCSVMHEALHNHYTQKSLSLSPGK
light 2: not shown
notes: as for B2

Columns and labels:
[1] = target: T1, recombinant human FcγRI protein (ACRO Biosystems, Cat. FCA-H52H1) (human, UniProt P12314 16-288, limits assumed); assay: BLI (Octet Red 96), FcγRI on HIS1K sensors
T1 construct: Captured on anti-His (HIS1K) biosensors, so it carries a His tag; also called FcγRI receptor
T1 sequence (P12314 16-288 limits assumed): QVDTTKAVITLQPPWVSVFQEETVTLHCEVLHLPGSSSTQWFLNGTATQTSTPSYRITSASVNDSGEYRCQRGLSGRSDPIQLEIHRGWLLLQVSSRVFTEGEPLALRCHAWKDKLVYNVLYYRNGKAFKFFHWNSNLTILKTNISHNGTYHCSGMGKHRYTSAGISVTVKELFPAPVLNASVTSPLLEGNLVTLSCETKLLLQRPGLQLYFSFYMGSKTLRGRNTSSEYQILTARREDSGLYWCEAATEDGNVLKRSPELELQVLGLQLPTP

[2] = target: T2, Recombinant human EGFR protein (ACRO Biosystems, EGR-H5222) (human, UniProt P00533 25-645); assay: ELISA, EGFR coated on the plate
T2 construct: Bought protein

| Binder | binding result [1] | binding result [2] |
| --- | --- | --- |
| B1 | binds | binds |
| B2 | binds | binds |
| B3 | binds | binds |
| B4 | binds | binds |
